IntAct's records for PubMed 19402751

Molecular target: T1, tim_drome tim (UniProt P49021)
T1 sequence: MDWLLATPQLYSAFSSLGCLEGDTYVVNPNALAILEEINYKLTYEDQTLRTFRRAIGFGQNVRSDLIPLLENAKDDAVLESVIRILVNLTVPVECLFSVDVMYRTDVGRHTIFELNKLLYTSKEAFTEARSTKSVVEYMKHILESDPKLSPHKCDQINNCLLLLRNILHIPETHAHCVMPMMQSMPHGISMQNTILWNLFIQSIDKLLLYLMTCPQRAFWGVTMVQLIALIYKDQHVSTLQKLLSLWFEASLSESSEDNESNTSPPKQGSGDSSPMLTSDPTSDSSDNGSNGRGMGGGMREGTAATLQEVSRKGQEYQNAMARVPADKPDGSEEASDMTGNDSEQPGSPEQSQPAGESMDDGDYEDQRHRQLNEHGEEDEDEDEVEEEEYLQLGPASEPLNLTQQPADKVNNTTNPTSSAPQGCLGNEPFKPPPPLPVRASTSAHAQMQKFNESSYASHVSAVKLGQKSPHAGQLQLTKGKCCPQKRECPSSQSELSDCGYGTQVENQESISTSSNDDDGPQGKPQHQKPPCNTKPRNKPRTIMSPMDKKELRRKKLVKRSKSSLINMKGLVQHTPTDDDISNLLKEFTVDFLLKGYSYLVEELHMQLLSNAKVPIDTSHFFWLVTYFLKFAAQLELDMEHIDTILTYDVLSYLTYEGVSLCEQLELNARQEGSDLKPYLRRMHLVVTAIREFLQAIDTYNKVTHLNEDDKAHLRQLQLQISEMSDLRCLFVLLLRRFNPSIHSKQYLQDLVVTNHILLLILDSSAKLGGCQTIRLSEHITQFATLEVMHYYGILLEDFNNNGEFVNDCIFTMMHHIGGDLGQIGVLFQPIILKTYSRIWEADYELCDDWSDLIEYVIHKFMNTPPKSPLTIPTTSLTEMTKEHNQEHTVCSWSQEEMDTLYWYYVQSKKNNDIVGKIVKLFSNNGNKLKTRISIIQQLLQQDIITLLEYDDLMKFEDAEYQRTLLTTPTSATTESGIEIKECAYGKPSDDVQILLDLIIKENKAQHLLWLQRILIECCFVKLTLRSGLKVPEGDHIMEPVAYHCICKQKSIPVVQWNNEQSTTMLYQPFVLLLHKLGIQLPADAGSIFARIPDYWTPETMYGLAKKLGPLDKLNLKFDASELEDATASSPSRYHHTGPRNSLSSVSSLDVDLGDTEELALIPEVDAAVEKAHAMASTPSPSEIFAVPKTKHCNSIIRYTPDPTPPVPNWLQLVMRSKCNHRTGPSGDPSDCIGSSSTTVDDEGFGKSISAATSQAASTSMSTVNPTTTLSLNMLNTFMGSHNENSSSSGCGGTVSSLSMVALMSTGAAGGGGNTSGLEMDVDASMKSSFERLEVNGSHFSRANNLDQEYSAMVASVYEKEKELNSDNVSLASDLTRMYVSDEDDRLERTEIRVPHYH

effect of a mutation on the interaction: disrupting interaction
Substance: Period circadian protein (Drosophila melanogaster (Fruit fly)) (from UniProt P07663-1) E474R;H492S;R494D
